Measurements published in the nanobody polyreactivity screen of Harvey et al. (2022).

Test: yeast display, Sf9 membrane polyspecificity reagent, FACS + sequencing; frameworks hold sequencing errors
How it was run: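 Nanobodies came from a synthetic yeast display library in Saccharomyces cerevisiae BJ5465, induced with galactose for 36–48 hours and stained for 1 hour at 4 °C with 10% biotinylated, detergent-solubilized Sf9 membrane reagent. Cells were enriched on streptavidin microbeads and then FACS-sorted, with low and high (top ~1%) gates set on anti-HA fluorescence for expression and streptavidin fluorescence for reagent binding. Each polyreactivity label reflects the gate a clone came from. Genes were amplified by colony PCR, sequenced by MiSeq 2 × 250 and filtered by CDR length.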

Sequence | polyreactivity (PSR sort gate)
QVHLVESGGGLVQAGGSLRLSCAASGRILTSNAMGWYRQAPGKERELVAAISWSGGSTYYADSVKGRFTISRVNAKNTVYLQMNSLKPEDTAVYYCAAPFTTTFDYWGQGTLVTVSS | low polyreactivity
QVQLVESGVGLVQAGGSLRLSCAASGSTFEYNAMGWYRQAPGKERELVASSTNYADSVKGRFTISRDNAKNTVYLQMNSLKPEDTAVYYCAREQGVNRNHDYWGQGTQVTVSS | low polyreactivity
QVQLVESGGGLVQAGGSLRLSCAASGFTFAYYTMGWYRQAPGKERELVATISTSGGSTYYADSVKGRFTISRDNAKNTVYLQMNSLKPEDTAVYYCNRDLGRYYHWYDYWGQGTQVTVSS | low polyreactivity
QVQLVESGGGLVQAGGSLRLSCAASGFTFRFYAMGWYRQAPGKERELVATISSRGGRTYYADSVKGRFTISRDNAKNTVYLQMNSLKPEDTAVYYCAADQKSQYQGNYWGQGTQVTVSS | high polyreactivity
QVQLVESGGGLVQAGGSLRLSCAASGSIFGYNTMGWYRKAPGKERELVAAISYRGGSTSADSVKGRFSISRDNAKNTVYLQMNSRKPEDTAVYSCATRSIVGYRYSGYDYWGQATQVTVSS | high polyreactivity
QVQLVESGGGLVQAGGSLRLSCAASGSTFGYYAMGWYRHAHGKERELVAAITGSVDSTYYADSVKGRFTISRDNAKNTVYLQMNSLKPEDTAVYYCAADTYSTYWGQGTQVTVSS | low polyreactivity
QVQLVESGGGLIQAGGSLRLSCAASGSILSDYVMAWYRQAPGKERELVAAITNDDSTNYADSVKGRFTISRDNAKNTVYLQMNSLKPEETAVYYCAAEWLVVYYISTGESYKVEFDYCGQGTQVTVSS | low polyreactivity
QVQLVETGGGLVQAGGSLRLSCAPSGRTLSYYAMGWYIQAPGKERELVAAIRHSAGSTYYADSVKVRFTISRDNAKNTVYLQMISLKPEDTAVYYCAKKYYGHRYPSIYDYWGQGTQVTVSS | high polyreactivity
QVQLVESGGGLVQAGGSLRLSCAASGGIFRVYAMGWYRQAPGKERELVAAISRSGSSTYYAVSVKGRFTISRDNAKNTVYLQMNSLKPEDTAVYYCNAYSQYWLGNNYWGEGTQVTVSS | high polyreactivity
QVQLVESVGGLVQAGGSLRLSCAASGSTFTYNDLGWYRQAPGKERELVARITFSSGRTYYADSVKGRFTISRDNAKNTVYLQMNSLTPEDTAVYDCARQWYWPPGYYIGQGYEYWGQGTQVTVSS | low polyreactivity
QVQLVESGGGLVQAGGSLRLSCAASGRTFSVYAMGWYRQAPGKERELVATISWGGGITYYADSVKGRFTISRDNAKNTVYLQMNSLKPEDTAVYYCAAKRSLYPYYYWGQGTQVTVSS | high polyreactivity
QVQLVESGGGLVQAGGSLRLSCAASGSIFRGNAMGWYRQAPGKERELVAAISKSGGSTYYADSVKGRFTISRDHAKNTVYLQMNSLKPEDTAVYYCAARTTYLYGMYYWGQGTQVTVSS | low polyreactivity
QVQLVESGGGLVQAGGSLRLSCAASGSTFVSNAMGWYRQAPGKERELVARITGSGGNTYYADSVKGRFTISRDNAKNTVYLQMNSLKPEDTAVYYCNADVFRKFGSPSAYKSHRYDYWGQGTQVTVSS | low polyreactivity
QVQLVESGGGLVQAGGSLRLSCAASGIIFAYYAMGWYRQAPGKERELVAAMNRSGGTTYYADSVKGRFTISRDNAKNTLYLQMNSLKPEDTAVYYCNALTTWRYRYDYWGQGTQVTVSS | high polyreactivity
QVQLVESGGGLVQAGGSLRLSCAASGRIFTGNVMRWYRQAPGKERELVAAISYGGGSTNYSDSVKGRFTISRDNAKNTVYLQMNSLKQEDTAVYYCAACIKRYLSYYTRYGYWGQGTQVTVSS | high polyreactivity
QVQLEESGGGLVQAGGSLRLSCAASGFIFGRNAMGWYRQAPGKERELVAAITRSGGSTYYADSVKGRFTISRDNAKNTVYLQMNSLKPEDTAVYYCAKGVFTWGVFRVGIRDDYWGQGTQVTVSS | high polyreactivity
QVQLVESGGGLVQAGGSLRLSCAASGSIFDFYAMGWYRQAPGKERELVAAINRGGSTYYADSVKGRFTISRDNAKNTVYLQMNSLKPEDTAVYYCAASYFYWRANRGPRYYWGQGTQVTVSS | high polyreactivity
QVQLLESGGGLVQAGGSLRLSCAASGSNFYVNAMGWYRQAPGKERELVAAITSTGTTHYADSVKGRFTISRDNAKNTDYLHMNSLKPEDTAVYYCAAYSRYQSRRYYYWGQGTQVTVSS | high polyreactivity
QVHLVESGRGLVQAGGSLRLSCAASGSIFESYAIGWYRQAPGKERELVAAISGNSDSTYYADSVKGRFTISRDNEKNTVYLQMNSLKPEDTAVYYCAKEGGNGYDYWGQGTQVTVSS | low polyreactivity
QVQLVESGGGLVQAGGSLRLSCAASGNTFAPYAMGWYRQAPGKERELVATISYRGGSTNYADSVKGRFTISRDNAKNTVYLQMNSLKPEDTAVYYCNARYRWVVNRYSASGGSYNYWGQGTQVTVSS | high polyreactivity
QVQLVESAGGLVQAGGSLRLSCAASGSIFDDYAMGWYRQAPGKERELVAAISDSGGSTSYADSVKGRFTISRDNAKNTVYLQMNSLKPEDTAVYYCNADRDDDYDYWGQGTQVTLSS | low polyreactivity
QVQLVESGGGLVQAGGSLRLSCAASGSTFYLNAMGWYRQAPGKERELVAAISRRGGSTYYADSVKGRFTISRDNAKNTVYLEMNSLKPDDTAVYYCNRARVYGYYAPFDYWGQGTQVTVSS | high polyreactivity

Sequence | polyreactivity (PSR sort gate)
QVQLVESGGGLVQAGGSLRLSCAASGRTLNRYAMGWYRQAPGKERELVAAIRWRGASTYYADSVKGRFTISRDNAKNTVYLQMNSLKPEDTAVYYCAKRFFASTPNFDYWGQGTQVTVSS | high polyreactivity
QVQLVESGGGLVQAGGSLRLSCAASGSIFYDNAMGWSRQAPGKERELVASIRWSGDSTYYADSVKGRFTISRDNAKNTVYLQMNSLKPEDTAVYYCAADPVEPYFTAIAYDYWGQGTQVTVSS | low polyreactivity
HVQLQESGGGMVQASGSPRLSCPASGNIFDADIMGWYRQAPGKQCELVASITDGGSTNYADSEKGRFTISSDNAKNTVYLQMNSLKPEDTAVYYCAAIAYPDIPTYFDYDSDYFYWGQGTHVTVSS | high polyreactivity
QDQLVESGGGLVHAGGSHRFSCAASGFTFGAYAMGWSRQAPGKERELVATITNSGRTYYADSVKGRFTISRDNAKNTVYLQMNSLKPEDTAVYYCAAQPDGQAMEHWGQGTQVTVSS | low polyreactivity
QVQLVESGGGLVQAGGSLRLSCAASGFTFIGYAMGWYRQAPGKERELVAAITISGGSTYYADSVKGRFTISRDNAKNTVYLQMNSLKPEDTAVYYCNVYRLAAFYSLRGYRYDYWGQGTQVTVSS | high polyreactivity
QVQLVESGGGLVQAGGSLRLSCAASGRIFVRNAMGWYRQAPGKEREMVAAISASGGSTYYADSVKGRFTISRDNAKNTVYLLMNSLKPEDTAVYYCNAYRAYYDLAYGYWGQGTQVTVSS | high polyreactivity
QVQLVESGGGLDQAGGSLRLSSAASGLTFVTYAMGWYRQAPGTERELVAAISYSGGSTYYADSVKGRFTISRDNAKNTVYLQMNSLKPEDTAVYYCNARSPQPDGRPPYNYWGQGTQVTVSS | high polyreactivity
QVQLVESGRGLVQAAGSLRLSCASSGSTYFGNTMVWYRQAPGKERELVATITRRGGTTYYADSVKGRFTISRDNAKNSVFLQMNSLKPEDTAVYYCAKRGPYTKYDYWGQGTQVTVSS | low polyreactivity
QVQLVESGGGLVQAGGSLRLSCAASGSTLVRNAMGWSRPAPGKERDLVAAITSSGGRTYYADSVKGRFTISRDTAKNTVYLQMNSLKPEDTAVYYCNRVSRYYLYDYWGQGTQVTVSS | high polyreactivity
QVQLVESGGGLVQAGGSLRLSCAASGSILYFYAMGWYRQAPGKEREFVAAISRSGGSTRYADSVKGRFTISRDNAKNTVYLQMNSLKPEDTAVYYCAATSRSYNDYDYWGQGTQVTVSS | high polyreactivity
QVQLVESGGGLVQAGGSLRLSCAASGSIFAYYAMGWYRQAPGKERELVAVISRGGSTYYADSVKGRFTISRDNATNTVYLQMNSLKPEDTAVYYCAADDTRGREEYDYWGQGTQVTVSS | high polyreactivity
QVQLVESGGGLVQAGGSLRLSCAASGRTFGLYAMGWYRQAPGKERELVAAISSGDSTNYADSVKGRFTISRDNAKNTVYLQMNSLKPEDTAVYYCAAAQQRWWQWYYYWGQGTQVTVSS | high polyreactivity
QVQLVESGGGLVQAGGSLRLSCAASGSIFDVNTMGWYSQAPGKERELVAGITSRGGSTYYADSVKGRFTISRDNAKNTVYLQMNSLKPEDTAVYYCAKRAYGTALYRGYGYWGQGTQVTVSS | low polyreactivity
QVQLVESGGGLVQAGGSLRISCDPSGSTFGQYAMGSYRQAPGKERELVAAINWNGGSTYYADSVKGRFTISRDNAKNTVYLQMNSLKPEDTAVYYCAADPVYYDFDYWGQGTQVTVSS | low polyreactivity
QVQLVESGGGLVQAGGSLRLSCAASGFTFIRNAMGWYRQAPGKERELVAAISKRGGSTNYADSVKGRFTISRDNAKTTVYLLMNSLKPEDTAVYYCAADVDTRSSSGYWGQGTQVTVSS | low polyreactivity
QVQLVESGGGKVQAGGSLRLSCAASGNTFTSNALGWYRQAPGKERELVAAISISGSTNYADSVKGRFTISRDNAKNSVYLQMNSLKPEDTAVYSCAARVGYTAWRRYNYWGQGTQVTVSS | high polyreactivity
QVQLVESGVGLVQAGGSLRLSCAASGFTFGDNAMGWYRQAPGKERELVADITSSGSTNYADSVKGRFTISRDNAKNTVYLQMNSLKPEDTAVYYCNAVDSVDAPVYKDLGSEYDSWGQGTQVTVSS | low polyreactivity
QVQLVESGGGLVQAGGSLRLSCAASGSTFFAYAMGWYRQAPGKERELVAAITGRGSTYYADSVKGRFSISRDNAKNTVYLQMNSLKPEDTAVYYCAAQRSRRYYRLDYWGQGTQVTVSS | high polyreactivity
QVQLVESGGGLVQAGGSLRLSCAASGSIFTPYAMGWYRQAPGTEREFVAVISWRVDSTYYADSVKGRFTISRDNAKNTVYLQMNSLKPEDTAVYYCAAKSYLLAPFGSGNRWSRYDYWGQGTQVTVSS | high polyreactivity
QVQLVESGGGLVQEGGSLRLSCAASGSIFGYYAMGWYRQAPGKERELVAAISRSGGSTYYADSVKGRFTISRDNAKNTVSLQMNSLKPEDTAFYYCAADDYPYGNYYWGKGTQVTVSS | high polyreactivity
QVQLVESGGGLVQAGGSLRLSCAASGRTFAVYAMGWYRQAPGKERELVAAISGRGGNTYYADSVKGRFTISRDNAKNTVYFQMNSLKPEDTAVYYCAAKAYQSEYGYWGQGTQVTVSS | high polyreactivity
